Measurements taken from patent US20220025381A1.

Key:
Assay in all cases: cell-based or functional assay
[1] = molecular target: T1, CD374 PV1-RfxCas13d-560C-NLS-BGHpA
T1 sequence: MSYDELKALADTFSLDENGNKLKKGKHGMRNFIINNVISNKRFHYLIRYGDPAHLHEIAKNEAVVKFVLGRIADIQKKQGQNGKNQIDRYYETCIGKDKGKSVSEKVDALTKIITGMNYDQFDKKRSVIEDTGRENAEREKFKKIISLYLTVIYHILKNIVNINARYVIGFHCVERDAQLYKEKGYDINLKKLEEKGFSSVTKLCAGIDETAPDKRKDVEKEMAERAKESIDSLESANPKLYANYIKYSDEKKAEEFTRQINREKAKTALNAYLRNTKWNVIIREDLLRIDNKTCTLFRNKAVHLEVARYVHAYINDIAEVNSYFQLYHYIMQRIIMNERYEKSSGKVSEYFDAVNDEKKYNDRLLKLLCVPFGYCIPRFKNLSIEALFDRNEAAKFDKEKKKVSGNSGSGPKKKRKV

[2] = molecular target: CD176 PV1-tandem CaffVHH-L1-iCre-271C-NLS-BGHpA
[3] = molecular target: T2, CD244 PV1-GAI-L1-RfxCas13d-560C-NLS-BGHpA
T2 sequence: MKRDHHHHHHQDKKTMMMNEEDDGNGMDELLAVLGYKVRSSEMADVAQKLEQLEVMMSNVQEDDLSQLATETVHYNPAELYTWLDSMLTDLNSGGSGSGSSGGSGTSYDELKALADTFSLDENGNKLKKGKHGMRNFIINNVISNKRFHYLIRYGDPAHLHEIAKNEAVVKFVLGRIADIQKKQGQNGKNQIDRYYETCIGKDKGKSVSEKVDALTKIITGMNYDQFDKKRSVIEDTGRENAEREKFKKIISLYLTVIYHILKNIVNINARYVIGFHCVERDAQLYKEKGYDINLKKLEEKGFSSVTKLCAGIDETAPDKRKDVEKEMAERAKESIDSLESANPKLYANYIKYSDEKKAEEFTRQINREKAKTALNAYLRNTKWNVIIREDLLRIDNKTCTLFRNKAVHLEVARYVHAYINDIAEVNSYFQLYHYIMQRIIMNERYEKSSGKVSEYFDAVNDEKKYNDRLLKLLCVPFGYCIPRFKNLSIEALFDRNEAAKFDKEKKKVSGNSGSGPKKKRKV

[4] = molecular target: CD92 PV1-CaffVHH-L1-iCre-271C-NLS-BGHpA
[5] = molecular target: T3, CD246 PV1-GAI-L1-RfxCas13d-566C-NLS-BGHpA
T3 sequence: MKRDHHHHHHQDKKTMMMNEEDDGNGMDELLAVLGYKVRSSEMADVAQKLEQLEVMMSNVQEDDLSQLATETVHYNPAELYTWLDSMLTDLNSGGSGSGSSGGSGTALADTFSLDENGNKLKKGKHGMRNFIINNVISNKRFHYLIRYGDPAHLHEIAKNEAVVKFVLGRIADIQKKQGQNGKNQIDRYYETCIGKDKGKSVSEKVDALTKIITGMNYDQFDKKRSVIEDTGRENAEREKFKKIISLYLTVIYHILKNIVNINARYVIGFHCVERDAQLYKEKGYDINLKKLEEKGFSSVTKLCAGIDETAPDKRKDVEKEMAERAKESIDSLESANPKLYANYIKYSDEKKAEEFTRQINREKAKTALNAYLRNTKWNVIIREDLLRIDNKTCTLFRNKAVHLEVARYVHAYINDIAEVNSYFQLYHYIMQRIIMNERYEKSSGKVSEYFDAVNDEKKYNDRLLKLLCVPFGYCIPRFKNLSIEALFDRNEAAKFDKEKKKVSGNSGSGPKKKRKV

Chain of CD92 PV1-CaffVHH-L1-iCre-271C-NLS-BGHpA (chain, as listed by the source): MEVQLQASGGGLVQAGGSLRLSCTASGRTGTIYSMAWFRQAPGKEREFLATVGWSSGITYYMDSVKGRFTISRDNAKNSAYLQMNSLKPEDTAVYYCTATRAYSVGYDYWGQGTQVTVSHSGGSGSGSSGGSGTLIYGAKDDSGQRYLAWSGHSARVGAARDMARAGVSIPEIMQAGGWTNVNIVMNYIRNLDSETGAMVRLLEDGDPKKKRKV
Chain of CD176 PV1-tandem CaffVHH-L1-iCre-271C-NLS-BGHpA (chain, as listed by the source): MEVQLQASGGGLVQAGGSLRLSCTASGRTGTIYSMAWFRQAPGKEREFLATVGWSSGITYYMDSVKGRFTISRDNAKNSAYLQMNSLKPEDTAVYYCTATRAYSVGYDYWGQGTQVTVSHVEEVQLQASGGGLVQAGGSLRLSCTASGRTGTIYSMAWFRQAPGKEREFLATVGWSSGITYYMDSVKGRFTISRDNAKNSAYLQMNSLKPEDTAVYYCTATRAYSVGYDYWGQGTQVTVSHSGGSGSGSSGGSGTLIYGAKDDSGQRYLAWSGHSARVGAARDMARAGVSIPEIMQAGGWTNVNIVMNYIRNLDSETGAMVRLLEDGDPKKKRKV

B1: CD373 PV1-RfxCas13d-N559-NLS-BGHpA (protein)
chain: MIEKKKSFAKGMGVKSTLVSGSKVYMTTFAEGSDARLEKIVEGDSIRSVNEGEAFSAEMADKNAGYKIGNAKFSHPKGYAVVANNPLYTGPVQQDMLGLKETLEKRYFGESADGNDNICIQVIHNILDIEKILAEYITNAAYAVNNISGLDKDIIGFGKFSTVYTYDEFKDPEHHRAAFNNNDKLINAIKAQYDEFDNFLDNPRLGYFGQAFFSKEGRNYIINYGNECYDILALLSGLRHWVVHNNEEESRISRTWLYNLDKNLDNEYISTLNYLYDRITNELTNSFSKNSAANVNYIAETLGINPAEFAEQYFRFSIMKEQKNLGFNITKLREVMLDRKDMSEIRKNHKVFDSIRTKVYTMMDFVIYRYYIEEDAKVAAANKSLPDNEKSLSEKDIFVINLRGSFNDDQKDALYYDEANRIWRKLENIMHNIKEFRGNKTREYKKKDAPRLPRILPAGRDVSAFSKLMYALTMFLDGKEINDLLTTLINKFDNIQSFLKVMPLIGVNAKFVEEYAFFKDSAKIADELRLIKSFARMGEPIADARRAMYIDAIRILGTNLPKKKRKV
With B1 the gRNA induced knockdown of mCherry without CID domains [1] was under 80%.

B2: CD175 PV1-iCre-N270-L1-tandem CaffVHH-NLS-BGHpA (protein)
chain: MSNLLTVHQNLPALPVDATSDEVRKNLMDMFRDRQAFSEHTWKMLLSVCRSWAAWCKLNNRKWFPAEPEDVRDYLLYLQARGLAVKTIQQHLGQLNMLHRRSGLPRPSDSNAVSLVMRRIRKENVDAGERAKQALAFERTDFDQVRSLMENSDRCQDIRNLAFLGIAYNTLLRIAEIARIRVKDISRTDGGRMLIHIGRTKTLVSTAGVEKALSLGVTKLVERWISVSGVADDPNNYLFCRVRKNGVAAPSATSQLSTRALEGIFEATHRSGGSGSGSSGGSGTMEVQLQASGGGLVQAGGSLRLSCTASGRTGTIYSMAWFRQAPGKEREFLATVGWSSGITYYMDSVKGRFTISRDNAKNSAYLQMNSLKPEDTAVYYCTATRAYSVGYDYWGQGTQVTVSHVEEVQLQASGGGLVQAGGSLRLSCTASGRTGTIYSMAWFRQAPGKEREFLATVGWSSGITYYMDSVKGRFTISRDNAKNSAYLQMNSLKPEDTAVYYCTATRAYSVGYDYWGQGTQVTVSHPKKKRKV
For B2, the caffeine concentration at maximum recombination efficiency [2] was 20 µM caffeine and the recombination against the single CaffVHH version, same induction conditions [2] was under 13 fold.

B3: CD243 PV1-RfxCas13d-N559-L1-GID-NLS-BGHpA (protein)
chain: MIEKKKSFAKGMGVKSTLVSGSKVYMTTFAEGSDARLEKIVEGDSIRSVNEGEAFSAEMADKNAGYKIGNAKFSHPKGYAVVANNPLYTGPVQQDMLGLKETLEKRYFGESADGNDNICIQVIHNILDIEKILAEYITNAAYAVNNISGLDKDIIGFGKFSTVYTYDEFKDPEHHRAAFNNNDKLINAIKAQYDEFDNFLDNPRLGYFGQAFFSKEGRNYIINYGNECYDILALLSGLRHWVVHNNEEESRISRTWLYNLDKNLDNEYISTLNYLYDRITNELTNSFSKNSAANVNYIAETLGINPAEFAEQYFRFSIMKEQKNLGFNITKLREVMLDRKDMSEIRKNHKVFDSIRTKVYTMMDFVIYRYYIEEDAKVAAANKSLPDNEKSLSEKDIFVINLRGSFNDDQKDALYYDEANRIWRKLENIMHNIKEFRGNKTREYKKKDAPRLPRILPAGRDVSAFSKLMYALTMFLDGKEINDLLTTLINKFDNIQSFLKVMPLIGVNAKFVEEYAFFKDSAKIADELRLIKSFARMGEPIADARRAMYIDAIRILGTNLSGGSGSGSSGGSGTMAASDEVNLIESRTVVPLNTWVLISNFKVAYNILRRPDGTFNRHLAEYLDRKVTANANPVDGVFSFDVLIDRRINLLSRVYRPAYADQEQPPSILDLEKPVDGDIVPVILFFHGGSFAHSSANSAIYDTLCRRLVGLCKCVVVSVNYRRAPENPYPCAYDDGWIALNWVNSRSWLKSKKDSKVHIFLAGDSSGGNIAHNVALRAGESGIDVLGNILLNPMFGGNERTESEKSLDGKYFVTVRDRDWYWKAFLPEGEDREHPACNPFSPRGKSLEGVSFPKSLVVVAGLDLIRDWQLAYAEGLKKAGQEVKLMHLEKATVGFYLLPNNNHFHNVMDEISAFVNAECPKKKRKV
For B3, the basal knockdown of mCherry induced by gRNA, no gibberellin [3] was 10 to 20% and the drug-induced knockdown of mCherry with gRNA [3] was over 75%.

B4: CD91 PV1-iCre-N270-L1-CaffVHH-NLS-BGHpA (protein)
chain: MSNLLTVHQNLPALPVDATSDEVRKNLMDMFRDRQAFSEHTWKMLLSVCRSWAAWCKLNNRKWFPAEPEDVRDYLLYLQARGLAVKTIQQHLGQLNMLHRRSGLPRPSDSNAVSLVMRRIRKENVDAGERAKQALAFERTDFDQVRSLMENSDRCQDIRNLAFLGIAYNTLLRIAEIARIRVKDISRTDGGRMLIHIGRTKTLVSTAGVEKALSLGVTKLVERWISVSGVADDPNNYLFCRVRKNGVAAPSATSQLSTRALEGIFEATHRSGGSGSGSSGGSGTMEVQLQASGGGLVQAGGSLRLSCTASGRTGTIYSMAWFRQAPGKEREFLATVGWSSGITYYMDSVKGRFTISRDNAKNSAYLQMNSLKPEDTAVYYCTATRAYSVGYDYWGQGTQVTVSHPKKKRKV
In the case of B4, the Cre reporter expression, share of transfected cells, 25 uM caffeine for 5 hours (% of transfected cells) [4] is reported as 30, the Cre reporter turned on, share of transfected cells, caffeine at least 50 uM, induction at least 5 hours (% of transfected cells) [4] is reported as 38 and the Cre reporter turned on, share of transfected cells, with caffeine, 48 hours (% of transfected cells) [4] is reported as over 80. The caffeine concentration able to turn on Cre activity and generate reporter expression in 48 hours [4] was 0.1 µM caffeine and the caffeine concentration at which similar, if not less, recombination efficiency was reached (single CaffVHH) [4] was 500 µM caffeine.

B5: CD245 PV1-RfxCas13d-N565-L1-GID-NLS-BGHpA (protein)
chain: MIEKKKSFAKGMGVKSTLVSGSKVYMTTFAEGSDARLEKIVEGDSIRSVNEGEAFSAEMADKNAGYKIGNAKFSHPKGYAVVANNPLYTGPVQQDMLGLKETLEKRYFGESADGNDNICIQVIHNILDIEKILAEYITNAAYAVNNISGLDKDIIGFGKFSTVYTYDEFKDPEHHRAAFNNNDKLINAIKAQYDEFDNFLDNPRLGYFGQAFFSKEGRNYIINYGNECYDILALLSGLRHWVVHNNEEESRISRTWLYNLDKNLDNEYISTLNYLYDRITNELTNSFSKNSAANVNYIAETLGINPAEFAEQYFRFSIMKEQKNLGFNITKLREVMLDRKDMSEIRKNHKVFDSIRTKVYTMMDFVIYRYYIEEDAKVAAANKSLPDNEKSLSEKDIFVINLRGSFNDDQKDALYYDEANRIWRKLENIMHNIKEFRGNKTREYKKKDAPRLPRILPAGRDVSAFSKLMYALTMFLDGKEINDLLTTLINKFDNIQSFLKVMPLIGVNAKFVEEYAFFKDSAKIADELRLIKSFARMGEPIADARRAMYIDAIRILGTNLSYDELKSGGSGSGSSGGSGTMAASDEVNLIESRTVVPLNTWVLISNFKVAYNILRRPDGTFNRHLAEYLDRKVTANANPVDGVFSFDVLIDRRINLLSRVYRPAYADQEQPPSILDLEKPVDGDIVPVILFFHGGSFAHSSANSAIYDTLCRRLVGLCKCVVVSVNYRRAPENPYPCAYDDGWIALNWVNSRSWLKSKKDSKVHIFLAGDSSGGNIAHNVALRAGESGIDVLGNILLNPMFGGNERTESEKSLDGKYFVTVRDRDWYWKAFLPEGEDREHPACNPFSPRGKSLEGVSFPKSLVVVAGLDLIRDWQLAYAEGLKKAGQEVKLMHLEKATVGFYLLPNNNHFHNVMDEISAFVNAECPKKKRKV
In the case of B5, the basal knockdown of mCherry induced by gRNA, no gibberellin [5] is reported as 10 to 20% and the drug-induced knockdown of mCherry with gRNA [5] is reported as over 75%.
